Substitutions are numbered along the chain they refer to. Numbers in names are those of the source. One block for each binder: values may come before it.
Target: Bacillus subtilis Rel N-terminal domain region (RelBs^NTD; residues 1 to 373) (B. subtilis)
Test: ITC; DarB or DarB variant (200 uM) in the syringe titrated into RelBs^NTD or variant (15 uM) in the cell; 25 °C; 50 mM Hepes pH 7.5, 500 mM KCl, 500 mM NaCl, 10 mM MgCl2, 1 mM TCEP, 0.002% mellitic acid

- Kd: 10.6 µM
B1: Bacillus subtilis DarB E34R (natural protein)
chain: MISLQSDQLLEATVGQFMIEADKVAHVQVGNNLRHALLVLTKTGYTAIPVLDPSYRLHGLIGTNMIMNSIFGLERIEFEKLDQITVEEVMLTDIPRLHINDPIMKGFGMVINNGFVCVENDEQVFEGIFTRRVVLKELNKHIRSLNK

- Kd: 8.9 µM
B2: Bacillus subtilis DarB E74G/R75G (natural protein)
chain: B1 chain with R34E, E74G, R75G

From article PMC9848473
